From patent US7534862 come the findings set out here.

In assay [1] the target is hyper-IL-6 (H-IL-6), a fusion protein comprising IL-6+sIL-6R (UniProt P08887). In words: cell-based or functional assay.
Assay [2] deals with IL-6/sIL-6R complex (100 ng/ml IL-6 + 50 ng/ml sIL-6R) (UniProt P05231). In words: cell-based or functional assay.
IL-6/sIL-6R complex (100 ng/ml IL-6 + 50 ng/ml sIL-6R), sequence (P05231 30-212 limits assumed, chain 1 of 2): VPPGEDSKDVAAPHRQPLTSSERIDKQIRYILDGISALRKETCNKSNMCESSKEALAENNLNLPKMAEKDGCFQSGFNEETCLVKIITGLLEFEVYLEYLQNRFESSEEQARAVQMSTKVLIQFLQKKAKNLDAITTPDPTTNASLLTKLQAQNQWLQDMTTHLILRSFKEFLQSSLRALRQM
IL-6/sIL-6R complex (100 ng/ml IL-6 + 50 ng/ml sIL-6R), sequence (P08887 20-358 limits assumed, chain 2 of 2, further chain): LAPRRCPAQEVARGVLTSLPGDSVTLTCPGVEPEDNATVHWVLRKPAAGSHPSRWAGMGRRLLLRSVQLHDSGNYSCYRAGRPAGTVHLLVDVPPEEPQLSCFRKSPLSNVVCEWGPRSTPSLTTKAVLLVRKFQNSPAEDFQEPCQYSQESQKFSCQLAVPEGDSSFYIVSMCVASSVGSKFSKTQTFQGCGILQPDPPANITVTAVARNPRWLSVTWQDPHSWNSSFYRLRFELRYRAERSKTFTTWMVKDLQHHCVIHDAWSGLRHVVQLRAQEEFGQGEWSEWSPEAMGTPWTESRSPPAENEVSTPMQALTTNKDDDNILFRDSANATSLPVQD

sgp130TagPEG (PEGylated sgp130Tag / sgp130(D1-D3)-His, forked PEG), sequence (P40189 other isoform, or with tags, fused parts or gaps): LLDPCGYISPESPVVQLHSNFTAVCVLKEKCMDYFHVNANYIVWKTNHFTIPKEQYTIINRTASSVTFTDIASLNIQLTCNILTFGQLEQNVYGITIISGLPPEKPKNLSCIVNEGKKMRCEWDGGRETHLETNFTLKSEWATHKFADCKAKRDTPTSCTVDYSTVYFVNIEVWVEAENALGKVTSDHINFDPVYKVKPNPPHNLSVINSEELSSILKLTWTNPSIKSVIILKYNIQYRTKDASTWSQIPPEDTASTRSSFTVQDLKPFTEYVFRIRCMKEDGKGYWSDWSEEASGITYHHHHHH
hyper-IL-6 (H-IL-6), a fusion protein comprising IL-6+sIL-6R, sequence (P08887 20-323 limits assumed, chain 1 of 2): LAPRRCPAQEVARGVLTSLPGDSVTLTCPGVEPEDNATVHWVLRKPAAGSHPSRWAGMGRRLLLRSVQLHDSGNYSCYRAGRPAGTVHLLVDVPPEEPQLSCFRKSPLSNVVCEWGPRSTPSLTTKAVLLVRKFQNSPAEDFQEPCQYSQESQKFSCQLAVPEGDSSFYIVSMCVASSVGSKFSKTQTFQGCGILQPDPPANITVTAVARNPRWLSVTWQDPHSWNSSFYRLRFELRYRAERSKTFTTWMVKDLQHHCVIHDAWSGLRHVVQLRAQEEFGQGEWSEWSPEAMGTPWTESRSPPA
hyper-IL-6 (H-IL-6), a fusion protein comprising IL-6+sIL-6R, sequence (P05231 30-212 limits assumed, chain 2 of 2, further chain): as the sequence (P05231 30-212 limits assumed, chain 1 of 2) above
Human sgp130Fc, sequence (P40189 23-619 limits assumed): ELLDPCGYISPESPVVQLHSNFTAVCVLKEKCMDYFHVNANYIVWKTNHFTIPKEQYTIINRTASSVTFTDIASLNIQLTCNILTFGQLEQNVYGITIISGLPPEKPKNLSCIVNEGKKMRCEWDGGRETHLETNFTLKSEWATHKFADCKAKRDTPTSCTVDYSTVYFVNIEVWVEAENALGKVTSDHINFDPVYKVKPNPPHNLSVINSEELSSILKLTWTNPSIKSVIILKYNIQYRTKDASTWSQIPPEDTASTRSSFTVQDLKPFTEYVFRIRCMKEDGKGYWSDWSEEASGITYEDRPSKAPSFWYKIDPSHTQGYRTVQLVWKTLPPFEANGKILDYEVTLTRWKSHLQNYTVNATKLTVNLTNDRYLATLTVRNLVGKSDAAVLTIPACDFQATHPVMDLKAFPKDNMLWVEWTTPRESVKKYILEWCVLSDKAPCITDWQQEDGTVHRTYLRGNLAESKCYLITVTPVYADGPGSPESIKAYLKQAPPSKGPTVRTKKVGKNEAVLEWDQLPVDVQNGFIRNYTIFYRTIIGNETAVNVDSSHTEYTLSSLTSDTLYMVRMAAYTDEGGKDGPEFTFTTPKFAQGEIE

“Human sgp130Fc (from UniProt P40189 23-619) (Fc fusion)” returned an STAT3 activity (relative luciferase activity, pSTAT3-TA-Luc reporter in BAF/gp130 cells) at 10 ug/ml inhibitor, 5 ng/ml H-IL-6 (% of activity with H-IL-6 alone) in assay [1] of 26.
In assay [1], “sgp130TagPEG (PEGylated sgp130Tag / sgp130(D1-D3)-His, forked PEG) (from UniProt P40189 24-322) (receptor)” had an STAT3 activity (relative luciferase activity, pSTAT3-TA-Luc reporter in BAF/gp130 cells) at 10 ug/ml inhibitor, 5 ng/ml H-IL-6 (% of activity with H-IL-6 alone) of 19; a concentration giving half-maximal activation of STAT3 (H-IL-6-induced, luciferase reporter in BAF/gp130 cells) of 2.5 µg/mL; an efficiency relative to sgp130Fc in inhibition of H-IL-6-induced STAT3 activation (fold vs sgp130Fc) of 2 to 3; a factor of improvement over sgp130Fc in inhibition of BAF/gp130 proliferation (fold vs sgp130Fc) of 1.5 to 3. In assay [1], the half-maximal [3H]-thymidine incorporation of BAF/gp130 cells (proliferation) lay in the range of 1 to 5 ng/mL. Besides, in assay [2], the factor of improvement over sgp130Fc in inhibition of BAF/gp130 proliferation (fold vs sgp130Fc) was in the range of 1.5 to 3 and the half-maximal [3H]-thymidine incorporation of BAF/gp130 cells (proliferation) fell in the range of 1 to 5 ng/mL.
